In US8361965B2, “Recombinant chimeric protein of neutrophil inhibitory factor and hirugen, and pharmaceutical composition thereof” (Lunan Pharmaceutical Group Corporation, priority 2008, dated 2013):
Several values for one entry are separate records, joined by “and”; a condition that tells them apart may be missing. Identical values can stand only once. Like-named read-outs stand apart in the source and are kept apart here.

Tests used:
[1] = system: experimental cerebral hematoma in rats; test: effects on experimental cerebral hematoma in rats; assay type: in vivo, SD rats; parameters: key to behavioral score: neurologic defect score, full score 11; higher = more severe disorder; conditions: 2 mg/kg bid caudal vein; for behavioral score: full score 11
Protocol: SD rats were randomly divided into 4 groups (8 animals per group), including model group, NHH group, NIF group and TNHH group. The rats in each group were anesthetized by chloral hydrate, and then 0.1 ml blood was collected by amputation of tail. The rats were fixed in a stereotaxic apparatus. Median incision of scalp was performed and the periosteum was cut open to expose bregma. Subsequently, a small hole with a diameter of 1 mm was perforated for needle insertion of microsyringe fixed on the stereotaxic apparatus with insertion depth of 5.8 mm (i.e to the position of caudate nucleus) at the site which was 1 mm rearward to the bregma and 3 mm left to the midline, and then 0.1 ml autoblood was injected slowly. Neurological functional defect score was immediately evaluated based on the evaluation criterion after the animal got conscious. The animal with behavior score less than 11 was selected in this study. Behavior score evaluation was continuously carried out after the establishment of model till the end of the experiment.
The neurologic function defect score was evaluated at 5 time points of 4 h, 12 h, 24 h, 48 h and 72 h after the model establishment. Changes of brain water content and histopathological observation were performed at 72 h after the model establishment on sacrificed rats.
Corresponding medicaments (2 mg/kg, bid) were administered through the caudal vein to animals with administration volume of 1 ml/100 g in each group after model animal was successfully established (according to the score less than 11 based on the behavior score evaluation), while the model group received physiological saline in the corresponding volume.
The brain was taken out immediately after the sacrifice of animals, and then […] ectocinerea (cortex was removed) at the edge of haematoma was collected. The brain water content was determined using dry and wet method based on the following formula: Brain water content=(wet weight−dry weight)/wet weight×100%
The brain was immediately taken out by decollation at selected time points, and it was sliced up to be 2 mm thick along the coronal section and then fixed in 10% formaldehyde. The slices were stained by regular HE and mounted. Then the pathological changes occurred in pathological region and the neighboring brain tissues were observed.
Evaluation was performed at the time of 4 h, 12 h, 24 h, 48 h and 72 h after surgery. The method was described as follows:
The flection of forelimbs was observed by lifting the rat by its tail. If the forelimbs symmetrically extended toward the floor, the score was 0. While if wrist flection, or elbow inflection, or internal rotation of shoulder, or both elbow inflection and internal rotation of shoulder occurred to forelimbs of the rat on the opposite side of the surgery part, it was evaluated as scores of 1, 2, 3 and 4, respectively.
The animal was placed on flat floor, and then both shoulders were pushed to move towards the opposite side to examine the resistance. If the resistances on both sides were equal and forceful, it was evaluated as 0. While if the resistance decreased slightly, mildly or severely when pushed to the opposite side of the surgery part, it was evaluated as 1, 2 or 3, respectively.
Both forelimbs of the animal were placed on a metal mesh to observe the muscular tension. The rat with equal and forceful muscular tension of both forelimbs was evaluated as 0. In the same way, the rat was evaluated as 1, 2 or 3, respectively with the reduction of muscular tension on the opposite side of the surgery part mentioned above.
The animal tended to keep turning around to one side was evaluated as 1. Based on the evaluation criterion (with full score of 11), the higher the score was evaluated, the more severe the behavior disorder was.

[2] = system: focal cerebral ischemia-reperfusion injury in rats; assay type: in vivo, Sprague-Dawley (SD) rats
[3] = M-1, TNHH 2.25 mg/kg i.v. (middle dose)
[4] = M-1, TNHH 6.75 mg/kg i.v. (high dose)
[5] = M-2, TNHH 2.25 mg/kg i.v. (middle dose)
[6] = M-2, TNHH 6.75 mg/kg i.v. (high dose)

B1: TNHH: recombinant chimeric protein of neutrophil inhibitory factor and hirugen, Met-NIF-GGGGG-FPRPGSGG-Hirugen (SEQ ID NO: 3), expressed in E. coli (protein)
chain: MNEHNLRCPQNGTEMPGFNDSIRLQFLAMHNGYRSKLALGHISITEESESDDDDDFGFLPDFAPRASKMRYLEYDCEAEKSAYMSARNCSDSSSPPEGYDENKYIFENSNNISEAALKAMISWAKEAFNLNKTKEGEGVLYRSNHDISNFANLAWDAREKFGCAVVNCPLGEIDDETNHDGETYATTIHVVCHYPKINKTEGQPIYKVGTPCDDCSEYTKKADNTTSADPVCIPDDGVCFIGSKADYDSKEFYRFRELGGGGGFPRPGSGGNGDFEEIPEEYL
modifications: N-terminal Met
behavioral score ([1]; 4 h): 2.00 ± 1.07 | behavioral score ([1]; 12 h): 2.00 ± 0.76 | behavioral score ([1]; 24 h): 2.25 ± 0.46 | behavioral score ([1]; 48 h): 2.12 ± 0.64 | Brain water content (%) ([1]; 72 h, dry and wet method): 78.28 ± 1.97 % | behavioral score ([1]; 72 h): 2.88 ± 1.46 | Cerebral infarction volume (%), based on the total volume of the brain ([2]; M-1 (occlusion 1 h, reperfusion 48 h), TNHH 0.75 mg/kg i.v. (low dose)): 19.93±12.40% | nervous symptom score ([2]; M-1 (occlusion 1 h, reperfusion 48 h), TNHH 0.75 mg/kg i.v., 2 h): 1.46 ± 0.58 | Decrease in percentage (%), compared with corresponding model group ([2]; M-1, TNHH 0.75 mg/kg i.v. (low dose)): 10.54% | nervous symptom score ([2]; M-1, TNHH 0.75 mg/kg i.v., 6 h): 1.42 ± 0.60 | nervous symptom score ([2]; M-1, TNHH 0.75 mg/kg i.v., 12 h): 1.42 ± 0.60 | nervous symptom score ([2]; M-1, TNHH 0.75 mg/kg i.v., 24 h): 1.40 ± 0.43 | nervous symptom score ([2]; M-1, TNHH 0.75 mg/kg i.v., 48 h): 1.36 ± 0.62 | Cerebral infarction volume (%), based on the total volume of the brain [2, 3]: 19.41±11.74% | Decrease in percentage (%), compared with corresponding model group [2, 3]: 12.88% | nervous symptom score ([2]; M-1, TNHH 2.25 mg/kg i.v., 2 h): 1.47 ± 0.92 | nervous symptom score ([2]; M-1, TNHH 2.25 mg/kg i.v., 6 h): 1.47 ± 0.92 | nervous symptom score ([2]; M-1, TNHH 2.25 mg/kg i.v., 12 h): 1.37 ± 0.92 | nervous symptom score ([2]; M-1, TNHH 2.25 mg/kg i.v., 24 h): 1.38 ± 0.41 | nervous symptom score ([2]; M-1, TNHH 2.25 mg/kg i.v., 48 h): 1.30 ± 0.76 | Cerebral infarction volume (%), based on the total volume of the brain [2, 4]: 12.89±8.94% | Decrease in percentage (%), compared with corresponding model group [2, 4]: 42.14% and 42.15** % | nervous symptom score ([2]; M-1, TNHH 6.75 mg/kg i.v., 2 h): 1.50 ± 0.58 | nervous symptom score ([2]; M-1, TNHH 6.75 mg/kg i.v., 6 h): 1.50 ± 0.68 | nervous symptom score ([2]; M-1, TNHH 6.75 mg/kg i.v., 12 h): 1.39 ± 0.65 | nervous symptom score ([2]; M-1, TNHH 6.75 mg/kg i.v., 24 h): 1.20 ± 0.36 | nervous symptom score ([2]; M-1, TNHH 6.75 mg/kg i.v., 48 h): 1.00 ± 0.42 | Cerebral infarction volume (%), based on the total volume of the brain ([2]; M-2 (occlusion 2 h, reperfusion 48 h), TNHH 0.75 mg/kg i.v. (low dose)): 27.52±17.63% and 27.52 ± 7.63% | nervous symptom score ([2]; M-2 (occlusion 2 h, reperfusion 48 h), TNHH 0.75 mg/kg i.v., 2 h): 1.94 ± 0.56 | Decrease in percentage (%), compared with corresponding model group ([2]; M-2, TNHH 0.75 mg/kg i.v. (low dose)): 3.63% | nervous symptom score ([2]; M-2, TNHH 0.75 mg/kg i.v., 6 h): 1.94 ± 0.56 | nervous symptom score ([2]; M-2, TNHH 0.75 mg/kg i.v., 12 h): 1.94 ± 0.73 | nervous symptom score ([2]; M-2, TNHH 0.75 mg/kg i.v., 24 h): 1.88 ± 0.64 | nervous symptom score ([2]; M-2, TNHH 0.75 mg/kg i.v., 48 h): 1.86 ± 0.77 | Cerebral infarction volume (%), based on the total volume of the brain [2, 5]: 26.07±8.06% | Decrease in percentage (%), compared with corresponding model group [2, 5]: 7.42% | nervous symptom score ([2]; M-2, TNHH 2.25 mg/kg i.v., 2 h): 1.81 ± 0.92 | nervous symptom score ([2]; M-2, TNHH 2.25 mg/kg i.v., 6 h): 1.80 ± 0.92 | nervous symptom score ([2]; M-2, TNHH 2.25 mg/kg i.v., 12 h): 1.79 ± 0.92 | nervous symptom score ([2]; M-2, TNHH 2.25 mg/kg i.v., 24 h): 1.68 ± 0.41 | nervous symptom score ([2]; M-2, TNHH 2.25 mg/kg i.v., 48 h): 1.67 ± 0.76 | Cerebral infarction volume (%), based on the total volume of the brain [2, 6]: 19.72±8.90% and 19.72 ± 5.90% | Decrease in percentage (%), compared with corresponding model group [2, 6]: 29.97% | nervous symptom score ([2]; M-2, TNHH 6.75 mg/kg i.v., 2 h): 1.75 ± 0.52 | nervous symptom score ([2]; M-2, TNHH 6.75 mg/kg i.v., 6 h): 1.75 ± 0.27 | nervous symptom score ([2]; M-2, TNHH 6.75 mg/kg i.v., 12 h): 1.50 ± 0.45 | nervous symptom score ([2]; M-2, TNHH 6.75 mg/kg i.v., 24 h): 1.37 ± 0.52 | nervous symptom score ([2]; M-2, TNHH 6.75 mg/kg i.v., 48 h): 1.22 ± 0.38
